Test [1] addresses human PD-L1 on cell surface (human) (UniProt Q9NZQ7). The test is described as follows: flow cytometry on CHO cells expressing human PD-L1, fitted curve, negative control. In general terms: Flow cytometry measures light scatter and fluorescence of single cells or particles in a stream.
The target in test [2] is monkey PD-L1 on cell surface (monkey). Nature of the test: flow cytometry on CHO cells expressing monkey PD-L1, fitted curve, negative control.
Test [3] addresses biotin-labeled PD-L1-Fc (human) (UniProt Q9NZQ7). Nature of the test: ELISA: biotin-PD-L1-Fc binding to coated human PD-1 with titrated antibody; negative control. (In general: In an ELISA, binding on a coated surface is turned into a signal by an enzyme label.)
The target is the same in test [4]. Nature of the test: ELISA: biotin-PD-L1-Fc binding to coated human PD-1 with titrated antibody, OD 450 nm, fitted curve; negative control.
The target is the same in test [5]. Nature of the test: flow cytometry: biotin-PD-L1-Fc binding to CHO cells expressing human PD-1 with titrated antibody, fitted curve; negative control.

pEC50: −log10 of the molar value.

biotin-labeled PD-L1-Fc (human), sequence (Q9NZQ7 19-238 limits assumed): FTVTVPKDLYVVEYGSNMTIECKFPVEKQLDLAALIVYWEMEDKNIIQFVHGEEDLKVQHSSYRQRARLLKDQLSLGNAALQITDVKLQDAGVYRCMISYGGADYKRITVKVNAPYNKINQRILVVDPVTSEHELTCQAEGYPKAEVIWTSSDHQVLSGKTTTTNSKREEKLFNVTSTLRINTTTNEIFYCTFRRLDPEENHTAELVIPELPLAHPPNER
human PD-L1 on cell surface (human), sequence (Q9NZQ7 19-290): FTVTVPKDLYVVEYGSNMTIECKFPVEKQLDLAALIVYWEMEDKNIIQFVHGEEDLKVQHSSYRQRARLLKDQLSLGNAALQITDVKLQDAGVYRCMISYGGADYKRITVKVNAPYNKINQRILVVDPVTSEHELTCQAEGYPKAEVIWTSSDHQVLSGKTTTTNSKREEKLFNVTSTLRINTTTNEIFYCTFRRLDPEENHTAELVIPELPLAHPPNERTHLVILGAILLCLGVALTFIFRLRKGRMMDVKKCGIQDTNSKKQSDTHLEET

negative control antibody human IgG: in test [1], the Bottom is 166; the pEC50 (usually the negative decadic logarithm of the EC50, by convention in mol/L) was 10.82; the LogEC50 is -1.82; the Span amounted to 24.7. Moreover, in test [1], the Top is 191. In test [2], this substance gave a Bottom of 216, a pEC50 of 7.71, a LogEC50 of 1.29 and a Span of 32. This substance also registered a Top in test [2] of 248. Further, the EC50 – broadly, the concentration giving half of the maximal effect – in test [3] was found to be 2.88 µg/mL. In test [4], the Bottom was 1.75, the LogEC50 was found to be 3.46, the Span was determined as 0.186 and the Top was 1.94. In test [5], this substance registered a Bottom of 5880, a LogEC50 of -17.5, a Span of 1.15e+06 and a Top of 1.16e+06.

The record behind these values is US20220073618A1.
